Assay results as given in US20200199647A1, “ASSAY FOR SCREENING MODULATORS OF HOLOPHOSPHATASE ACTIVITY” (UNITED KINGDOM RESEARCH AND INNOVATION, priority 2017, published 2020).
Each block holds one substance with its values, some of them ahead of it.

Experiments:
[1] = target: P-eIF2α (human eIF2α amino acids 1-185 solubility mutant, C-terminal His6-tag, phosphorylated on Ser51) (human) (UniProt P05198); assay: thermophoresis (MST), labelled P-eIF2α with 10 µM R15B, unlabelled PP1c^D95A titrated
[2] = target: P-eIF2α (human eIF2α amino acids 1-185 solubility mutant, C-terminal His6-tag, phosphorylated on Ser51) (human) (UniProt P05198); assay: thermophoresis
Target sequence in this assay (P05198 other isoform, or with tags, fused parts or gaps mutant): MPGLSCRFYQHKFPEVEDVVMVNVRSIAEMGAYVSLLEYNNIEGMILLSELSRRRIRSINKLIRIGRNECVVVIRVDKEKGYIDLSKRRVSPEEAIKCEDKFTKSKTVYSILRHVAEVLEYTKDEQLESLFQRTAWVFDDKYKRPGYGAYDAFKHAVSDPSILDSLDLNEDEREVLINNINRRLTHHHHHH

[3] = target: PP1c (human PP1cα amino acids 7-330, N-terminal Thio6/His6 tag) (human) (UniProt P62136); assay: thermophoresis
[4] = target: P-eIF2α (human eIF2α amino acids 1-185 solubility mutant, C-terminal His6-tag, phosphorylated on Ser51) (human) (UniProt P05198); assay: thermophoresis (MST), labelled P-eIF2α, unlabelled PP1c^D95A titrated
[5] = target: PP1c (human PP1cα amino acids 7-330, N-terminal Thio6/His6 tag) (human) (UniProt P62136); assay: thermophoresis (MST), labelled PP1c, unlabelled R15A titrated
[6] = target: P-eIF2α (human eIF2α amino acids 1-185 solubility mutant, C-terminal His6-tag, phosphorylated on Ser51) (human) (UniProt P05198); assay: thermophoresis (MST), labelled P-eIF2α with 10 µM R15A, unlabelled PP1c^D95A titrated

Sequence of PP1c (human PP1cα amino acids 7-330, N-terminal Thio6/His6 tag) (human) (P62136 other isoform, or with tags, fused parts or gaps): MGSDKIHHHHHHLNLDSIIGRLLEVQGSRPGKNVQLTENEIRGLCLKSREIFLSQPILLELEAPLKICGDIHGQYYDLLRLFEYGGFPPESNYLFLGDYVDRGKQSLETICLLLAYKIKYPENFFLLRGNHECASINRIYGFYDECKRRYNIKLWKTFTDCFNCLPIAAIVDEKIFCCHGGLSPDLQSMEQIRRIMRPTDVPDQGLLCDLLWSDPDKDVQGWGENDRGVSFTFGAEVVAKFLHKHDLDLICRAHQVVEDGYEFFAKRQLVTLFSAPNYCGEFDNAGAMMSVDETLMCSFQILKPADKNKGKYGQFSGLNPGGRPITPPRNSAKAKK

Substance: R15B (human PPP1R15B amino acids 340-698, N-terminal MBP-tag, C-terminal His6-tag) (from UniProt Q5SWA1 340-698)
- Kd [2]: 550 nM

Substance: R15B^N (human PPP1R15B amino acids 340-635, N-terminal MBP-tag, C-terminal His6-tag) (from UniProt Q5SWA1 340-635)
- Kd [2]: 530 nM

Substance: R15A^N (human PPP1R15A amino acids 325-512, N-terminal MBP-tag, C-terminal His6-tag) (from UniProt O75807 325-512)
- Kd [2]: 440 nM

Substance: R15A (human PPP1R15A amino acids 325-636, N-terminal MBP-tag, C-terminal His6-tag) (from UniProt O75807 325-636)
- Kd [5]: 60 nM
- Kd [2]: 340 nM

Substance: R15A-PP1c^D95A holophosphatase complex (from UniProt O75807 325-636; P62136 7-330)
- fold higher affinity than the isolated PP1c^D95A [6]: 5.4 times

The next lines start with the values.

- fold higher affinity than the isolated PP1c^D95A [1]: 3 times
Substance: R15B-PP1c^D95A holophosphatase complex (from UniProt P0AEX9 27-392; Q5SWA1 340-698; P62136 7-330)

- Kd [3]: 190 nM
Substance: R15A^C (human PPP1R15A amino acids 513-636, N-terminal MBP-tag, C-terminal His6-tag) (from UniProt O75807 513-636)

- Kd [4]: 650 nM
Substance: PP1c^D95A (human PP1cα amino acids 7-330, D95A, N-terminal Thio6/His6 tag) (from UniProt P62136 7-330) (enzyme)
